Data published in paper PMC11326307 (bioRxiv, 2024).

Key:
Snu23-DHFR = molecular target: T1, Snu23-DHFR (S. cerevisiae, UniProt Q12368 1-194, Cy5-TMP fluorophore bound to the DHFR tag); assay: colocalization single molecule spectroscopy
T1 sequence (looked up): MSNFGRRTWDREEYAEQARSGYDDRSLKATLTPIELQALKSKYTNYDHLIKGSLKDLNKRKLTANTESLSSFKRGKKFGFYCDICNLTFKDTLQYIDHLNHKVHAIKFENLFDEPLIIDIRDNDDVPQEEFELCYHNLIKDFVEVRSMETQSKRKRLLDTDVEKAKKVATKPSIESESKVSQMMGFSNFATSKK

Spp381-DHFR = molecular target: T2, Spp381-DHFR (S. cerevisiae, UniProt P38282 1-291, Cy5-TMP fluorophore bound to the DHFR tag); assay: colocalization single molecule spectroscopy
T2 sequence (looked up): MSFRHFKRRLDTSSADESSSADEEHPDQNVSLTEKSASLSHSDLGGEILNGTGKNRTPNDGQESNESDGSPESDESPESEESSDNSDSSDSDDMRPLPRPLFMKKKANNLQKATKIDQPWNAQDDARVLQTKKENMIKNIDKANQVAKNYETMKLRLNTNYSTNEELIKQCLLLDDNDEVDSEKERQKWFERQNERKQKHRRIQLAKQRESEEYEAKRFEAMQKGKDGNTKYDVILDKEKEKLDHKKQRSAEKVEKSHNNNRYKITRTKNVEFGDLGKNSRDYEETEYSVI

B1: Prp38-SNAP (natural protein)
chain: MAVNEFQVESNISPKQLNNQSVSLVIPRLTRDKIHNSMYYKVNLSNESLRGNTMVELLKVMIGAFGTIKGQNGHLHMMVLGGIEFKCILMKLIEIRPNFQQLNFLLNVKNENGFDSKYIIALLLVYARLQYYYLNGNNKNDDDENDLIKLFKVQLYKYSQHYFKLKSFPLQVDCFAHSYNEELCIIHIDELVDWLATQDHIWGIPLGKCQWNKIYNSDEESSSSESESNGDSEDDNDTSSES
modifications: SNAP-Surface 549 dye (SNAP-DY549) on the SNAP tag
event pairs (of those arriving together) with simultaneous release (Snu23-DHFR): 77%
event pairs with simultaneous arrival at the pre-mRNA (Snu23-DHFR): 91%
event pairs (of those arriving together) with simultaneous release (Spp381-DHFR): 77%
event pairs with simultaneous arrival at the pre-mRNA (Spp381-DHFR): 91%
